Measurements from US20040050316A1 (published 2004).

Target: the molecule itself
Assay: X-ray crystal structure (self-association of subunits)
From the text: Native data, to 2.2 Å resolution, were collected at station 9.6 of the S.R.S. Daresbury, from crystals frozen at liquid nitrogen temperatures in a cryo-protecting solution comprising of mother liquor plus 20% glycerol. The structure was solved by multiple isomorphous replacement with anomalous scattering using three heavy atom derivatives. Table 1 details data collection and heavy atom statistics; the HKL package (Otwinowski, Z & Minor, W (1997) Methods Enzymol 276, 307-326), and the CCP4 (Acta Crystallogr D 50 (1994) 760-763) software suite were used for data processing and analysis. Heavy atom positions were derived from difference Patterson and difference Fourier calculations. The SHARP program (Fortelle E. d. -L. & Bricogne, G. (1997) Methods Enzymol 276, 472-494) was used to refine the heavy atom parameters and obtain initial phases, further heavy atom sites were identified from the residual map analysis available in SHARP. […]
The initial model of AMPDA was traced using the QUANTA package (Molecular Simulations Inc) and refined using all data to 2.2 Å with X-PLOR (Briinger, A. T. (1993) X-PLOR Version 3.1 A system for X-ray crystallography and NMR, Yale University Press, New Haven, Conn.). […] The current model has a Rcryst=21.2% and a Rfree=25.4%, calculated on 5% of the data set (Branger, A. T. (1992) Nature 355, 472-475).

B1: rabbit AMP deaminase (AMPDA) catalytic domain, starting at Leu96 (enzyme)
chain: LSHIDEYISLSPTYQTVPDFQRVQITGDYASGVTVEDFEIVCKGLYRALCIREKYMLKSFQRFPKTPSKYLRSIEGTAWKANESSYPVFTPALKKGEDPFRTDNLPENLGYHLKMKDGVVYIYANEAAAGKDEPKPLLYPNMEEFLDDMNFLLALIAQGPVKTYTHRRLKFLSSKFQVHQMLNEMDELKELKNNPHRDFYNCRKVDTHIHAAACMNQKHLLRFIKKSYQVDADRVVYSTKEKNLTLKQLFDKLKLHPYDLTVDSLDVHAGRQTFQRFDKFNDKYNPVGASELRDLYLKTDNYINGEYFATIIKEVGADLVDAKYQHAEPRLSIYGRSPDEWSKLSSWFVRNRIYSSNMTWMIQVPRIYDVFRSKNFLPHFGKMLENVFMPVFEATINPQAHPELSVFLKHITGFDSVDDESKHSGHMFSSKSPKPQEWTLEKNPSYTYYAYYMYANIMVLNSLRKERGMNTFLFRPHCGEVGALTHLMTAFMTADNISHGLNLKKSPVLQYLFFLAQIPIAMSPLSNNSLFLEYAKNPFLDFLQKGLMISLSTDDPMQFHFTKEPLMEEYAIAAQVFKLSTCDMCEVARNSVLQCGISHEEKAKFLGNNYLEEGPIGNDIRKTNVAQIRMAYRYETWCYELNLIAEGLKSTE
notes: Purified from rabbit skeletal muscle; also called rabbit AMPDA; truncated enzyme
binding result: binds
